doi:10.1101/2020.08.10.244244

Molecular target: HA-tagged mutant (Leu15) AP2σ2 subunit (human) (human) (UniProt P53680)
Assay: co-IP

## AP2α subunit, endogenous in HEK293 cells (from UniProt O95782 1-977) (natural protein)
  reduction of the subunit in the HA-AP2σ2 immunoprecipitate against WT cells: > 50%
